{
  "source": "paper PMC4117754",
  "key": {"[1]": {"target": "PTB-GFP (UniProt P26599)", "sequence (P26599 whole entry)": "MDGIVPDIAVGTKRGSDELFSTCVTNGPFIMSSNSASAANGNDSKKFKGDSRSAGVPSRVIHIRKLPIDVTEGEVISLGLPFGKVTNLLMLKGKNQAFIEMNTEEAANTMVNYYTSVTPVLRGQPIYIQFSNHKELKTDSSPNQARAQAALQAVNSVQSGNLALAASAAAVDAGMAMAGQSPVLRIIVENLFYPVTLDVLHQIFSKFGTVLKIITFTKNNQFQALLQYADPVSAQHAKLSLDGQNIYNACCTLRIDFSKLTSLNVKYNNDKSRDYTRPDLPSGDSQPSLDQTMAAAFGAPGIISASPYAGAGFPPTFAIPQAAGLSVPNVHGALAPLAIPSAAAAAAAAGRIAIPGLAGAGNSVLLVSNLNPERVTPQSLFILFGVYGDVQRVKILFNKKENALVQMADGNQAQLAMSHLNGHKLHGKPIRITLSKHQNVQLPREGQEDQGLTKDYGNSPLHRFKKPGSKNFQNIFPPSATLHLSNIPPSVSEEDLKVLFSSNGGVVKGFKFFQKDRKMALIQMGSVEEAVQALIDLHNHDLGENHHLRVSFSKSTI", "assay": "single-molecule TIRF", "conditions": "Filter binding: 5 mM Hepes pH 7.4, 100 mM KCl, 3 mM MgCl2, 5% glycerol, 75 ug/ml yeast tRNA, 75 ug/ml BSA, 0.5 mM DTT, room temp, probing: 20 mM HEPES-KOH pH 7."}, "[2]": {"test_system": "PTB1 C4 C250S;C251S;E518C;del1-55, P26599-1", "sequence (P26599 other isoform, or with tags, fused parts or gaps C250S C251S E518C)": "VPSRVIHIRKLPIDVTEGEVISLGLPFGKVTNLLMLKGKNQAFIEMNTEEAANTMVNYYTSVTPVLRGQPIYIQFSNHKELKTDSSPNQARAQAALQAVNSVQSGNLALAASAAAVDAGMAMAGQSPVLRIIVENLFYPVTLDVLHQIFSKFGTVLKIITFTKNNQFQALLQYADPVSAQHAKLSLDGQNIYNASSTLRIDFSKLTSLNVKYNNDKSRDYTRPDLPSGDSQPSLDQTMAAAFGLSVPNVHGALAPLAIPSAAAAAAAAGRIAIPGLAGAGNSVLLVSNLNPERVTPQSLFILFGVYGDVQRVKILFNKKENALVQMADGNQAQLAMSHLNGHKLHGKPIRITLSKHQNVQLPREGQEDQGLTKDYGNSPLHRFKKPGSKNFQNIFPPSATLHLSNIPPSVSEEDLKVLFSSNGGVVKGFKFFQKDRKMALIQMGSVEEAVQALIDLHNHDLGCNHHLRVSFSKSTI", "assay": "filter binding", "conditions": "Filter binding: 5 mM Hepes pH 7.4, 100 mM KCl, 3 mM MgCl2, 5% glycerol, 75 ug/ml yeast tRNA, 75 ug/ml BSA, 0.5 mM DTT, room temp; probing: 20 mM HEPES-KOH pH 7."}, "[3]": {"test_system": "PTB1 C1mC2 C250S;C251S;Q124C;D284C;del1-55, P26599-1", "sequence (P26599 other isoform, or with tags, fused parts or gaps C250S C251S Q124C D284C)": "as the sequence (P26599 other isoform, or with tags, fused parts or gaps C250S C251S E518C) above, with Q69C, D229C, C463E counted along it", "assay": "filter binding", "conditions": "Filter binding: 5 mM Hepes pH 7.4, 100 mM KCl, 3 mM MgCl2, 5% glycerol, 75 ug/ml yeast tRNA, 75 ug/ml BSA, 0.5 mM DTT, room temp; probing: 20 mM HEPES-KOH pH 7."}, "[4]": {"test_system": "PTB1 C1C2 C250S;C251S;Q124C;D284C;del1-55, P26599-1", "sequence (P26599 other isoform, or with tags, fused parts or gaps C250S C251S Q124C D284C)": "as the sequence (P26599 other isoform, or with tags, fused parts or gaps C250S C251S E518C) above, with Q69C, D229C, C463E counted along it", "assay": "filter binding", "conditions": "Filter binding: 5 mM Hepes pH 7.4, 100 mM KCl, 3 mM MgCl2, 5% glycerol, 75 ug/ml yeast tRNA, 75 ug/ml BSA, 0.5 mM DTT, room temp; probing: 20 mM HEPES-KOH pH 7."}, "[5]": {"test_system": "PTB1 C1mC2m C250S;C251S;Q124C;D284C;I214S;F216A;K218S;del1-55, P26599-1", "sequence (P26599 other isoform, or with tags, fused parts or gaps C250S C251S Q124C D284C I214S F216A K218S)": "as the sequence (P26599 other isoform, or with tags, fused parts or gaps C250S C251S E518C) above, with Q69C, I159S, F161A, K163S, D229C, C463E counted along it", "assay": "filter binding", "conditions": "Filter binding: 5 mM Hepes pH 7.4, 100 mM KCl, 3 mM MgCl2, 5% glycerol, 75 ug/ml yeast tRNA, 75 ug/ml BSA, 0.5 mM DTT, room temp; probing: 20 mM HEPES-KOH pH 7."}, "[6]": {"test_system": "PTB1 C4m C250S;C251S;E518C;del1-55, P26599-1", "sequence (P26599 other isoform, or with tags, fused parts or gaps C250S C251S E518C)": "as the sequence (P26599 other isoform, or with tags, fused parts or gaps C250S C251S E518C) above", "assay": "filter binding", "conditions": "Filter binding: 5 mM Hepes pH 7.4, 100 mM KCl, 3 mM MgCl2, 5% glycerol, 75 ug/ml yeast tRNA, 75 ug/ml BSA, 0.5 mM DTT, room temp; probing: 20 mM HEPES-KOH pH 7."}, "[7]": {"test_system": "PTB1 C3mC4m C250S;C251S;E518C;del1-55, P26599-1", "sequence (P26599 other isoform, or with tags, fused parts or gaps C250S C251S E518C)": "as above", "assay": "filter binding", "conditions": "Filter binding: 5 mM Hepes pH 7.4, 100 mM KCl, 3 mM MgCl2, 5% glycerol, 75 ug/ml yeast tRNA, 75 ug/ml BSA, 0.5 mM DTT, room temp; probing: 20 mM HEPES-KOH pH 7."}, "[8]": {"test_system": "PTB1 C3mC4 C250S;C251S;E518C;del1-55, P26599-1", "sequence (P26599 other isoform, or with tags, fused parts or gaps C250S C251S E518C)": "as above", "assay": "filter binding", "conditions": "Filter binding: 5 mM Hepes pH 7.4, 100 mM KCl, 3 mM MgCl2, 5% glycerol, 75 ug/ml yeast tRNA, 75 ug/ml BSA, 0.5 mM DTT, room temp; probing: 20 mM HEPES-KOH pH 7."}, "[9]": {"test_system": "PTB1 C3C4m C250S;C251S;E518C;del1-55, P26599-1", "sequence (P26599 other isoform, or with tags, fused parts or gaps C250S C251S E518C)": "as above", "assay": "filter binding", "conditions": "Filter binding: 5 mM Hepes pH 7.4, 100 mM KCl, 3 mM MgCl2, 5% glycerol, 75 ug/ml yeast tRNA, 75 ug/ml BSA, 0.5 mM DTT, room temp; probing: 20 mM HEPES-KOH pH 7."}, "[10]": {"test_system": "PTB1 C4pack C250S;C251S;E518C;E502K;V505E;I509K;del1-55, P26599-1", "sequence (P26599 other isoform, or with tags, fused parts or gaps C250S C251S E518C E502K V505E I509K)": "as the sequence (P26599 other isoform, or with tags, fused parts or gaps C250S C251S E518C) above, with E447K, V450E, I454K counted along it", "assay": "filter binding", "conditions": "Filter binding: 5 mM Hepes pH 7.4, 100 mM KCl, 3 mM MgCl2, 5% glycerol, 75 ug/ml yeast tRNA, 75 ug/ml BSA, 0.5 mM DTT, room temp; probing: 20 mM HEPES-KOH pH 7."}, "[11]": {"test_system": "PTB1 C1C2m C250S;C251S;Q124C;D284C;I214S;F216A;K218S;del1-55, P26599-1", "sequence (P26599 other isoform, or with tags, fused parts or gaps C250S C251S Q124C D284C I214S F216A K218S)": "as the sequence (P26599 other isoform, or with tags, fused parts or gaps C250S C251S E518C) above, with Q69C, I159S, F161A, K163S, D229C, C463E counted along it", "assay": "filter binding", "conditions": "Filter binding: 5 mM Hepes pH 7.4, 100 mM KCl, 3 mM MgCl2, 5% glycerol, 75 ug/ml yeast tRNA, 75 ug/ml BSA, 0.5 mM DTT, room temp; probing: 20 mM HEPES-KOH pH 7."}, "[12]": {"test_system": "PTB1 C3C4 C250S;C251S;E518C;del1-55, P26599-1", "sequence (P26599 other isoform, or with tags, fused parts or gaps C250S C251S E518C)": "as the sequence (P26599 other isoform, or with tags, fused parts or gaps C250S C251S E518C) above", "assay": "filter binding", "conditions": "Filter binding: 5 mM Hepes pH 7.4, 100 mM KCl, 3 mM MgCl2, 5% glycerol, 75 ug/ml yeast tRNA, 75 ug/ml BSA, 0.5 mM DTT, room temp; probing: 20 mM HEPES-KOH pH 7."}, "[13]": {"test_system": "PTB1 LmC4 C250S;C251S;E518C;K439A;K440A;del1-55, P26599-1", "sequence (P26599 other isoform, or with tags, fused parts or gaps C250S C251S E518C K439A K440A)": "as the sequence (P26599 other isoform, or with tags, fused parts or gaps C250S C251S E518C) above, with K384A, K385A counted along it", "assay": "filter binding", "conditions": "Filter binding: 5 mM Hepes pH 7.4, 100 mM KCl, 3 mM MgCl2, 5% glycerol, 75 ug/ml yeast tRNA, 75 ug/ml BSA, 0.5 mM DTT, room temp; probing: 20 mM HEPES-KOH pH 7."}},
  "data": [
    {"substance": "AUGUGAACAUGGAAUCAUCAAGGAAUGCACACUCACCAGCAACACCAAGUGCAAAGAGGAAGGUAAUUAUUUUUUUACGGUUAUAUUCUCCUUUCCCCCAACCCCAUGGAAAGAUGUGAAGAAAAACCAAUCACUCUUGAUUACUAGAAAGUCCUUUAUUUAAUCUUAAAGAUUGCUUAUUUUCAUAUAAAAUGUCCAAUGUUCCAACCUACAGGAUCCAGAUCUAACUUGGGGUGGCAAUGCACACUCACCAGGCCAAUUCCACUAAUUGUUUGGGGUAAGUUCUUGCUUUGUUCAAACUGCAGAUUGAAAUAACUUGGGAAGUAGGUGUGAAAGUAUGUUCUCACAUGCAUUCUACAAGGCUGAGACCUGAGUUGAUAAAAUUUCUUUGUUCUUUCAGUGAAGAGAAAGGAAGUACAGAAAACAUGCAGAAAGCACAGAAAGGAA [FAS m0 mutant RNA]", "values": [
      {"measurement": "binding signal (% RNA with bound PTB-GFP)", "setting": "[1]", "value": 2.9},
      {"measurement": "Kd", "setting": "[2]", "value": 7.5, "unit": "nM"}
    ]},
    {"substance": "AUGUGAACAUGGAAUCAUCAAGGAAUGCACACUCACCAGCAACACCAAGUGCAAAGAGGAAGGUAAUUAUUUUUUUACGGUUAUAUUCUCCUUUCCCCCAACCCCAUGGAAAGAUGUGAAGAAAAACCAAUCACUCUUGAUUACUAGAAAGUCCUUUAUUUAAUCUUAAAGAUUGCUUAUUUUCAUAUAAAAUGUCCAAUGUUCCAACCUACAGGAUCCAGAUCUAACUUGGGGUGGCUUUGUCUUCUUCUUUUGCCAAUUCCACUAAUUGUUUGGGGUAAGUUCUUGCUUUGUUCAAACUGCAGAUUGAAAUAACUUGGGAAGUAGGUGUGAAAGUAUGUUCUCACAUGCAUUCUACAAGGCUGAGACCUGAGUUGAUAAAAUUUCUUUGUUCUUUCAGUGAAGAGAAAGGAAGUACAGAAAACAUGCAGAAAGCACAGAAAGGAA [FAS WT RNA (exon 5-6-7)]", "values": [
      {"measurement": "Kd", "setting": "[1]; average Kd, 3-4 PTB sites, 2.6% of RNA with bound PTB-GFP, nuclear extract", "value": 20, "unit": "nM"},
      {"measurement": "Kd", "setting": "[3]", "value": 11.6, "unit": "nM"},
      {"measurement": "Kd", "setting": "[4]", "value": 10.1, "unit": "nM"},
      {"measurement": "Kd", "setting": "[5]", "value": 12.3, "unit": "nM"},
      {"measurement": "Kd", "setting": "[6]", "value": 29.9, "unit": "nM"},
      {"measurement": "Kd", "setting": "[7]", "value": 24.6, "unit": "nM"},
      {"measurement": "Kd", "setting": "[8]", "value": 16.5, "unit": "nM"},
      {"measurement": "Kd", "setting": "[9]", "value": 22.9, "unit": "nM"},
      {"measurement": "Kd", "setting": "[2]", "value": 10.3, "unit": "nM"},
      {"measurement": "Kd", "setting": "[10]", "value": 6.3, "unit": "nM"},
      {"measurement": "Kd", "setting": "[11]", "value": 15.3, "unit": "nM"},
      {"measurement": "Kd", "setting": "[12]", "value": 14.7, "unit": "nM"},
      {"measurement": "Kd", "setting": "[13]", "value": 14.2, "unit": "nM"}
    ]},
    {"substance": "Tpm1 RNA", "values": [
      {"measurement": "binding signal (% RNA with bound PTB-GFP)", "setting": "[1]", "value": 7.9}
    ]}
  ]
}
